Columns and labels:
[1] = biological target: MARK1 kinase–UBA domain fragment (residues 45–371), tag-cleaved (human, UniProt Q9P0L2 45-371); assay: SAXS
[2] = biological target: MARK1 kinase–UBA domain fragment (residues 45–371), hexahistidine tag intact (human, UniProt Q9P0L2 45-371); assay: SPR
Sequence of MARK1 kinase–UBA domain fragment (residues 45–371), hexahistidine tag intact (Q9P0L2 45-371): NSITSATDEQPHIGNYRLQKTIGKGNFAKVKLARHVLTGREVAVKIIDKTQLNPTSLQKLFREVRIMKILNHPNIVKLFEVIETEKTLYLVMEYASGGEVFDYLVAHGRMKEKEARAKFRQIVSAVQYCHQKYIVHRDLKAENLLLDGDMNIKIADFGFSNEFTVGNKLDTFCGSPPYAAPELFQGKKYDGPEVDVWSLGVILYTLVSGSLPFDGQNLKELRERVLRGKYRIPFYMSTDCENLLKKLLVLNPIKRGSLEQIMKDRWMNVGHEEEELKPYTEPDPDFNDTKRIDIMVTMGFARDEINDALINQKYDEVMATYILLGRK

Sequence of MARK1 kinase–UBA domain fragment (residues 45–371), tag-cleaved (Q9P0L2 45-371): as above

B1: MARK1 KA1 domain (residues 683–795) (domain or fragment)
chain: not shown
stoichiometry N [1]: 1 | Kd [2]: 73 µM

From article PMC5317272 (The Biochemical journal, 2016)
